Measured values: patent US11833164B2, “Methods of treating Fabry disease in patients having a mutation in the GLA gene” (Amicus Therapeutics, Inc., priority 2019, dated 2023)

System: mutant form of α-Gal A expressed in HEK-293 cells
Assay: HEK assay (GLP HEK / Migalastat Amenability Assay): α-Gal A activity in lysates of transiently transfected HEK-293 cells incubated with or without 10 μM migalastat
Format: cell-based, human
Settings: for Absolute increase (% WT) / Relative increase: 10 μM migalastat versus baseline; for Baseline α-Gal A activity (% WT): absence of migalastat; for Baseline α-Gal A activity (% WT) / 10 μM migalastat α-Gal A activity (% WT): percentage of baseline wild-type α-Gal A activity; for 10 μM migalastat α-Gal A activity: incubated 5 days with 10 μM migalastat; for 10 μM migalastat α-Gal A activity (% WT): with 10 μM migalastat, 5 days
Method in brief: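 Activity reported as 4-MU released (nmol/mg/hr), mean±SEM, from lysates of transiently transfected HEK-293 cells expressing mutant α-Gal A, cultured with or without 10 μM migalastat.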

[1] = lysates of HEK-293 cells transiently transfected with the mutant form, incubated 5 days in absence of migalastat, mean ± SEM
[2] = lysates of HEK-293 cells transiently transfected with the mutant form, mean ± SEM

Row | Molecule | Absolute increase (% WT) | Relative increase | Baseline α-Gal A activity (% WT) (mean ± SEM) | Baseline α-Gal A activity [1] | 10 μM migalastat α-Gal A activity [2] | 10 μM migalastat α-Gal A activity (% WT) (mean ± SEM) | Baseline α-Gal A activity (nmol/mg/hr) [1]
1 | L294V (protein) MQLRNPELHLGCALALRFLALVSWDIPGARALDNGLARTPTMGWLHWERFMCNLDCQEEPDSCISEKLFMEMAELMVSEGWKDAGYEYLCIDDCWMAPQRDSEGRLQADPQRFPHGIRQLANYVHSKGLKLGIYADVGNKTCAGFPGSFGYYDIDAQTFADWGVDLLKFDGCYCDSLENLADGYKHMSLALNRTGRSIVYSCEWPLYMWPFQKPNYTEIRQYCNHWRNFADIDDSWKSIKSILDWTSFNQERIVDVAGPGGWNDPDMLVIGNFGLSWNQQVTQMALWAIMAAPVFMSNDLRHISPQAKALLQDKDVIAINQDPLGKQGYQLRQGDNFEVWERPLSGLAWAVAMINRQEIGGPRSYTIAVASLGKGVACNPACFITQLLPVKRKLGFYEWTSRLRSHINPTGTVLLQLENTMQMSLKDLL | 33.8 % WT | 9.0 | 4.4 ± 0.3 % WT | 1452 ± 71 nmol/mg/h | 13038 ± 880 nmol/mg/h | 38.2 ± 2.7 % WT | –
2 | N298D (protein) MQLRNPELHLGCALALRFLALVSWDIPGARALDNGLARTPTMGWLHWERFMCNLDCQEEPDSCISEKLFMEMAELMVSEGWKDAGYEYLCIDDCWMAPQRDSEGRLQADPQRFPHGIRQLANYVHSKGLKLGIYADVGNKTCAGFPGSFGYYDIDAQTFADWGVDLLKFDGCYCDSLENLADGYKHMSLALNRTGRSIVYSCEWPLYMWPFQKPNYTEIRQYCNHWRNFADIDDSWKSIKSILDWTSFNQERIVDVAGPGGWNDPDMLVIGNFGLSWNQQVTQMALWAIMAAPLFMSDDLRHISPQAKALLQDKDVIAINQDPLGKQGYQLRQGDNFEVWERPLSGLAWAVAMINRQEIGGPRSYTIAVASLGKGVACNPACFITQLLPVKRKLGFYEWTSRLRSHINPTGTVLLQLENTMQMSLKDLL | 21.7 % WT | 9.6 | 2.5 ± 0.2 % WT | 795 ± 56 nmol/mg/h | 7645 ± 388 nmol/mg/h | 24.2 ± 1.2 % WT | –
3 | F295I (protein) MQLRNPELHLGCALALRFLALVSWDIPGARALDNGLARTPTMGWLHWERFMCNLDCQEEPDSCISEKLFMEMAELMVSEGWKDAGYEYLCIDDCWMAPQRDSEGRLQADPQRFPHGIRQLANYVHSKGLKLGIYADVGNKTCAGFPGSFGYYDIDAQTFADWGVDLLKFDGCYCDSLENLADGYKHMSLALNRTGRSIVYSCEWPLYMWPFQKPNYTEIRQYCNHWRNFADIDDSWKSIKSILDWTSFNQERIVDVAGPGGWNDPDMLVIGNFGLSWNQQVTQMALWAIMAAPLIMSNDLRHISPQAKALLQDKDVIAINQDPLGKQGYQLRQGDNFEVWERPLSGLAWAVAMINRQEIGGPRSYTIAVASLGKGVACNPACFITQLLPVKRKLGFYEWTSRLRSHINPTGTVLLQLENTMQMSLKDLL | 25.7 % WT | 1.3 | 78.3 ± 4.5 % WT | 26687 ± 1470 nmol/mg/h | 35634 ± 2203 nmol/mg/h | 104.1 ± 6.6 % WT | –
4 | F295S (protein) MQLRNPELHLGCALALRFLALVSWDIPGARALDNGLARTPTMGWLHWERFMCNLDCQEEPDSCISEKLFMEMAELMVSEGWKDAGYEYLCIDDCWMAPQRDSEGRLQADPQRFPHGIRQLANYVHSKGLKLGIYADVGNKTCAGFPGSFGYYDIDAQTFADWGVDLLKFDGCYCDSLENLADGYKHMSLALNRTGRSIVYSCEWPLYMWPFQKPNYTEIRQYCNHWRNFADIDDSWKSIKSILDWTSFNQERIVDVAGPGGWNDPDMLVIGNFGLSWNQQVTQMALWAIMAAPLSMSNDLRHISPQAKALLQDKDVIAINQDPLGKQGYQLRQGDNFEVWERPLSGLAWAVAMINRQEIGGPRSYTIAVASLGKGVACNPACFITQLLPVKRKLGFYEWTSRLRSHINPTGTVLLQLENTMQMSLKDLL | 10.5 % WT | 16.8 | 0.6 ± 0.1 % WT | 230 ± 45 nmol/mg/h | 3847 ± 309 nmol/mg/h | 11.1 ± 0.9 % WT | –
5 | F295Y (protein) MQLRNPELHLGCALALRFLALVSWDIPGARALDNGLARTPTMGWLHWERFMCNLDCQEEPDSCISEKLFMEMAELMVSEGWKDAGYEYLCIDDCWMAPQRDSEGRLQADPQRFPHGIRQLANYVHSKGLKLGIYADVGNKTCAGFPGSFGYYDIDAQTFADWGVDLLKFDGCYCDSLENLADGYKHMSLALNRTGRSIVYSCEWPLYMWPFQKPNYTEIRQYCNHWRNFADIDDSWKSIKSILDWTSFNQERIVDVAGPGGWNDPDMLVIGNFGLSWNQQVTQMALWAIMAAPLYMSNDLRHISPQAKALLQDKDVIAINQDPLGKQGYQLRQGDNFEVWERPLSGLAWAVAMINRQEIGGPRSYTIAVASLGKGVACNPACFITQLLPVKRKLGFYEWTSRLRSHINPTGTVLLQLENTMQMSLKDLL | 36.3 % WT | 1.6 | 62.9 ± 6.1 % WT | 21452 ± 1929 nmol/mg/h | 34502 ± 2504 nmol/mg/h | 99.2 ± 6.5 % WT | –
6 | F295V (protein) MQLRNPELHLGCALALRFLALVSWDIPGARALDNGLARTPTMGWLHWERFMCNLDCQEEPDSCISEKLFMEMAELMVSEGWKDAGYEYLCIDDCWMAPQRDSEGRLQADPQRFPHGIRQLANYVHSKGLKLGIYADVGNKTCAGFPGSFGYYDIDAQTFADWGVDLLKFDGCYCDSLENLADGYKHMSLALNRTGRSIVYSCEWPLYMWPFQKPNYTEIRQYCNHWRNFADIDDSWKSIKSILDWTSFNQERIVDVAGPGGWNDPDMLVIGNFGLSWNQQVTQMALWAIMAAPLVMSNDLRHISPQAKALLQDKDVIAINQDPLGKQGYQLRQGDNFEVWERPLSGLAWAVAMINRQEIGGPRSYTIAVASLGKGVACNPACFITQLLPVKRKLGFYEWTSRLRSHINPTGTVLLQLENTMQMSLKDLL | 48.0 % WT | 1.7 | 73.4 ± 5.7 % WT | 24973 ± 1752 nmol/mg/h | 41782 ± 2877 nmol/mg/h | 121.5 ± 7.7 % WT | –
7 | S297T (protein) MQLRNPELHLGCALALRFLALVSWDIPGARALDNGLARTPTMGWLHWERFMCNLDCQEEPDSCISEKLFMEMAELMVSEGWKDAGYEYLCIDDCWMAPQRDSEGRLQADPQRFPHGIRQLANYVHSKGLKLGIYADVGNKTCAGFPGSFGYYDIDAQTFADWGVDLLKFDGCYCDSLENLADGYKHMSLALNRTGRSIVYSCEWPLYMWPFQKPNYTEIRQYCNHWRNFADIDDSWKSIKSILDWTSFNQERIVDVAGPGGWNDPDMLVIGNFGLSWNQQVTQMALWAIMAAPLFMTNDLRHISPQAKALLQDKDVIAINQDPLGKQGYQLRQGDNFEVWERPLSGLAWAVAMINRQEIGGPRSYTIAVASLGKGVACNPACFITQLLPVKRKLGFYEWTSRLRSHINPTGTVLLQLENTMQMSLKDLL | 9.7 % WT | – | – | – | 3178 ± 327 nmol/mg/h | 9.7 ± 0.8 % WT | BLD (“BLD” indicates that the mean α-Gal A activity was below the limit of detection (<142 nmol/mg/hr))
